Laboratory results published in PMC2851846 (Oncogene, 2010).

Assays:
[1] = target: T1, pCREB/KIX ternary complex on CRE DNA (pCREB/KIX/CRE) (UniProt P16220-2 1-327; P45481 588-683, phosphoserine at 133 (Ser133)); test: native gel or EMSA
[2] = target: T1, pCREB/KIX ternary complex on CRE DNA …; test: native gel or EMSA; remark: listed apart in the source

T1 sequence (P16220 whole entry, chain 1 of 2): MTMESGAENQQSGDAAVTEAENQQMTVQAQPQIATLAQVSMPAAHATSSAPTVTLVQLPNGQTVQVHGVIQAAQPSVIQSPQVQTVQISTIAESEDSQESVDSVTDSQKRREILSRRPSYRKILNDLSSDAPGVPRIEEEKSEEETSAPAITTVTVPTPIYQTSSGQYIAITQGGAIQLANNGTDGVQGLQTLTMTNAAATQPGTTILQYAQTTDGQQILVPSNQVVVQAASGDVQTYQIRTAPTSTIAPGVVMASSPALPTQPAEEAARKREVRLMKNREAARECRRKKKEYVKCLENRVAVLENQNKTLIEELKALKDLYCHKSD
T1 sequence (P45481 588-683, chain 2 of 2): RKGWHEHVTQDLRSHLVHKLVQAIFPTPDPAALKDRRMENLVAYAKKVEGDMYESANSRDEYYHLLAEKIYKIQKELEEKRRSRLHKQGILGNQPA

B1: HTLV-1 Tax protein, Tax-His6 (natural protein)
chain: not shown
[1]
  apparent Kd on cyclin D1 CRE DNA: 34 ± 5 nM
[2]
  apparent Kd on vCRE DNA: 2.4 ± 0.1 nM
